From PMC9510766 come the findings set out here.

Assay [1] deals with recombinant Cas2C of Leptospira interrogans serovar Copenhageni (rLinCas2C) (L. interrogans serovar Copenhageni strain Fiocruz L1-130). The experiment in a line: SEC; size-exclusion chromatography of the Ni-NTA purified recombinant protein; conditions not shown. In general terms: In gel filtration, larger molecules generally elute earlier.
Assay [2] deals with recombinant Cas2C of Leptospira interrogans serovar Lai (rLinCas2C_Lai) (L. interrogans serovar Lai). The description is as above.

Consider “recombinant Cas2C of Leptospira interrogans serovar Copenhageni (rLinCas2C) (enzyme)”, for which, in assay [1], the stoichiometry N is 2.

Consider “recombinant Cas2C of Leptospira interrogans serovar Lai (rLinCas2C_Lai) (enzyme)”, for which, in assay [2], the stoichiometry N amounted to 3.

Broadly, the stoichiometry N is the number of molecules, sites or subunits per partner or assembly.
